PMC10908835, “Alternative low-populated conformations prompt phase transitions in polyalanine repeat expansions” (Nature Communications, 2024)

B1: human PHOX2B fragment 228-314 (XS20) (domain or fragment, UniProt Q99453 228-314, looked up)
chain: GPGGPGGEPGKGGAAAAAAAAAAAAAAAAAAAAGGLAAAGGPGQGWAPGPGPITSIPDSLGGPFASVLSSLQRPNGAKAALVKSSMF
notes: Paired mesoderm homeobox protein 2B (PHOX2B), human, residues 228-314, holds the 20-alanine tract (residues 241-260); 15N/13C-labelled for NMR; also called PHOX2B C-terminal fragment; wild-type PHOX2B; not shown: Thioredoxin, N-terminal, cleaved; His6, N-terminal, cleaved
B2: human PHOX2B fragment 228-314 with a +6 Ala expansion (XS26) (domain or fragment, UniProt Q99453 228-314, looked up)
chain: GPGGPGGEPGKGGAAAAAAAAAAAAAAAAAAAAAAAAAAGGLAAAGGPGQGWAPGPGPITSIPDSLGGPFASVLSSLQRPNGAKAALVKSSMF
notes: Made by mutagenic PCR; 15N/13C-labelled for NMR titrations; also called +6 Ala variant; expanded PHOX2B; not shown: Thioredoxin, N-terminal, cleaved; His6, N-terminal, cleaved
B3: human PHOX2B fragment 228-314 with a +3 Ala expansion (XS23) (domain or fragment, UniProt Q99453 228-314, looked up)
chain: GPGGPGGEPGKGGAAAAAAAAAAAAAAAAAAAAAAAGGLAAAGGPGQGWAPGPGPITSIPDSLGGPFASVLSSLQRPNGAKAALVKSSMF
notes: PHOX2B, human, residues 228-314 (wild-type numbering) with 3 alanines added to the 20-alanine tract (241-260); Made by mutagenic PCR; 15N/13C-labelled for NMR; also called +3 Ala variant; +3 PARM; not shown: Thioredoxin, N-terminal, cleaved; His6, N-terminal, cleaved

Assays:
[1] = molecular target: the molecule itself; experiment: NMR 15N spin relaxation (overall correlation time against that computed for the helix); 0.5 mM 15N/13C XS20 in NMR buffer (5 mM KPi, 10 mM NaCl, 2 mM β-mercaptoethanol, pH 6.8), 5 °C, 800 MHz
[2] = molecular target: T1, human HSP90β (named HSP90) (human, UniProt P08238 1-724); experiment: NMR titration; 15N-HSQC signal intensity; 0.07 mM 15N/13C XS26 with fresh 0.14 mM unlabelled HSP70 or HSP90 (1:2), 25 °C, 20 mM Hepes, 10 mM NaCl, 5 mM MgCl2, 2 mM ATP, 1 mM DTT, pH 6.8; details: both partners purified
T1 construct: Unlabelled in the NMR titrations
T1 sequence (P08238 whole entry): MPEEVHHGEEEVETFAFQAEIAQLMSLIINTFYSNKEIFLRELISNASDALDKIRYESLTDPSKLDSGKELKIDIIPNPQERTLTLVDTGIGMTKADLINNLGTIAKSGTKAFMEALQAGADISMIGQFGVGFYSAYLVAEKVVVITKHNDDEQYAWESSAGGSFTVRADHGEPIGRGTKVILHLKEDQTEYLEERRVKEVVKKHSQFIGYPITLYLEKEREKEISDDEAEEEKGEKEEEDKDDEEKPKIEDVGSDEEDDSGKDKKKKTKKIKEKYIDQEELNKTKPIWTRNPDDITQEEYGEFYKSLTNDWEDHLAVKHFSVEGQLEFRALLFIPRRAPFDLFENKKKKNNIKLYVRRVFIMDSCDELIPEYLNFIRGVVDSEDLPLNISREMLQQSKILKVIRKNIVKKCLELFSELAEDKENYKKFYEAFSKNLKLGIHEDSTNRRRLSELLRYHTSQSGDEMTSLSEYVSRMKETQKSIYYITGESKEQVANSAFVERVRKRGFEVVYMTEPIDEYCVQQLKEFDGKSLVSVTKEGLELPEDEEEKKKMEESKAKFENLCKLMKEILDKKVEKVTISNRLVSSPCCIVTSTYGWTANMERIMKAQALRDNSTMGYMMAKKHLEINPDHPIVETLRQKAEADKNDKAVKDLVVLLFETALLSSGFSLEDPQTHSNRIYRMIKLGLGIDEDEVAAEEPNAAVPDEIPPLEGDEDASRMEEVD

[3] = molecular target: T2, human HSP72 (named HSP70) (human, UniProt P0DMV8 1-641); experiment: as above; details: both partners purified
T2 construct: Unlabelled in the NMR titrations; 2 mM ATP and 5 mM MgCl2 in the buffer
T2 sequence (P0DMV8 whole entry): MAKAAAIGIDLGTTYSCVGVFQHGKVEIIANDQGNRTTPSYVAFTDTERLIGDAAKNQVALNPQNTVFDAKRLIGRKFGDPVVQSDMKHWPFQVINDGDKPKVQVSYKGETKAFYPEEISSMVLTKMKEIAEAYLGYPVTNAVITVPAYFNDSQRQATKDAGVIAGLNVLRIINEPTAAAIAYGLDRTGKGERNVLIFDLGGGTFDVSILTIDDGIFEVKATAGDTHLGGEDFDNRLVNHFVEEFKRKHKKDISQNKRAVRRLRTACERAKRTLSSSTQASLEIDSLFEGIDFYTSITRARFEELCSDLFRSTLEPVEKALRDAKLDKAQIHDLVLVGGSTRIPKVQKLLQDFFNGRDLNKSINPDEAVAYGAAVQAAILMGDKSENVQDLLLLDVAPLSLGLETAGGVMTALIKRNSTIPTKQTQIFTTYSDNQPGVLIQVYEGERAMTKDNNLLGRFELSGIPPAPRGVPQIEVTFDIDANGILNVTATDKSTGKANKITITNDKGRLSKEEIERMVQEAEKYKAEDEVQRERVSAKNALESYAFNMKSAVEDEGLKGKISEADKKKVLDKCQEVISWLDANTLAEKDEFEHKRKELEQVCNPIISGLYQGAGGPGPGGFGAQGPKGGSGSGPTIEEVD

[4] = molecular target: the molecule itself; experiment: NMR 15N spin relaxation (overall correlation time against that computed for the helix); 0.05 and 0.5 mM XS20, 0.5 mM XS23, 0.5 mM XS26 in NMR buffer (5 mM KPi, 10 mM NaCl, 2 mM β-mercaptoethanol, pH 6.8), 25 °C, 800 MHz

Row | Binder | binding result [1] | binding result [2] | binding result [3] | binding result [4]
1 | B1 | binds | – | – | –
2 | B2 | – | binds | binds | binds
3 | B3 | – | – | – | binds
